According to patent publication US20220340682A1 (Sanofi, published 2022):
Positions count from the first letter of the chain named. Each block holds one binder with its values, some of them ahead of it.

Legend:
[1] = biological target: T1, cCEACAM5, M. fascicularis CEACAM5 ECD (35-688) (Macaca fascicularis); assay: SPR (BIAcore 2000), mAb captured by anti-human Fc, antigen injected 1-500 nM
T1 construct: ECD followed by a 24 amino acid extension containing a His-Tag; also called cynomolgus CEACAM5; monkey CEACAM5
T1 chain: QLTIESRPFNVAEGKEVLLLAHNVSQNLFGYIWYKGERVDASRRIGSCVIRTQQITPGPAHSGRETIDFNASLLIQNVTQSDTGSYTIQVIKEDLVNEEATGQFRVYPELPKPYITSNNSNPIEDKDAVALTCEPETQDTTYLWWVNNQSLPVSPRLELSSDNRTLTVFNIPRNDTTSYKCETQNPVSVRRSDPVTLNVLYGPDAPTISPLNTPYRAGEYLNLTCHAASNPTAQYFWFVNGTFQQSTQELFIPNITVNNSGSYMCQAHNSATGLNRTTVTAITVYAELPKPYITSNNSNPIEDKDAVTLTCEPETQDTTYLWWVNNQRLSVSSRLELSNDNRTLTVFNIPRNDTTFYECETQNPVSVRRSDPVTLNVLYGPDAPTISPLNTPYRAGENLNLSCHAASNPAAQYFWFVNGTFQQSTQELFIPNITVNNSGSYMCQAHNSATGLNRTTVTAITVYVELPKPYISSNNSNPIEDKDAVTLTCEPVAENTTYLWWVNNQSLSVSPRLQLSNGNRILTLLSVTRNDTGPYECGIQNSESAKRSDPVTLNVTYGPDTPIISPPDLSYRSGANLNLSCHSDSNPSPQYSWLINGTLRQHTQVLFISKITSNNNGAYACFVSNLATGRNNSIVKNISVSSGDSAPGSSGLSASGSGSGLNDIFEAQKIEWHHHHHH
Method: The binding kinetics of humanized anti-CEACAM5_MAb2 variants, compared with chimeric MAb2, to recombinant human CEACAM5 (hCEACAM5) and cynomolgus monkey CEACAM5 (cCEACAM5) were determined by surface plasmon resonance assay using a BlAcore 2000 (BlAcore Inc., Uppsala, N.J.).
Briefly, a CM5 BlAcore biosensor chip was docked into the instrument and activated with 70 μL of 1:1 NHS/EDC at room temperature. A mouse anti-ahuman Fc IgG1 (BlAcore # BR-1008-39) (50 μg/mL in […] acetate buffer, pH5) were immobilized on the activated chips in all flow cells. The immobilization was carried out at a flow rate of 10 μL/min up to saturation. The chip was then blocked by injection of 70 μL of ethanolamine-HCl, pH8.5, followed by one wash with 3M MgCl2. To measure the binding of anti-CEACAM5 mAbs to the human CEACAM5 protein or cynomolgus CEACAM5 protein, antibodies were used at 1-5 μg/mL in BlAcore running buffer (HBS-EP). Antigens (human CEACAM5 or cynomolgus CEACAM5) were injected from 1 to 500 nM. Following completion of the injection phase, dissociation was monitored in a BlAcore running buffer at the same flow rate for 600 sec. The surface was regenerated between injections using 2×5 μL MgCl2 3M (2×30s). Individual sensorgrams were analyzed using BlAevaluation software.

[2] = biological target: T2, human CEACAM5 expressed on the surface of tumor cells (human, UniProt P06731 35-685); assay: apparent KD, flow cytometry on CR-IGR-034P primary colon tumor cells
T2 construct: Endogenous CEACAM5 of human tumor cells; also called hCEACAM5 on MKN45 cells; CEACAM5 on CR-IGR-034P primary colon tumor cells
T2 sequence: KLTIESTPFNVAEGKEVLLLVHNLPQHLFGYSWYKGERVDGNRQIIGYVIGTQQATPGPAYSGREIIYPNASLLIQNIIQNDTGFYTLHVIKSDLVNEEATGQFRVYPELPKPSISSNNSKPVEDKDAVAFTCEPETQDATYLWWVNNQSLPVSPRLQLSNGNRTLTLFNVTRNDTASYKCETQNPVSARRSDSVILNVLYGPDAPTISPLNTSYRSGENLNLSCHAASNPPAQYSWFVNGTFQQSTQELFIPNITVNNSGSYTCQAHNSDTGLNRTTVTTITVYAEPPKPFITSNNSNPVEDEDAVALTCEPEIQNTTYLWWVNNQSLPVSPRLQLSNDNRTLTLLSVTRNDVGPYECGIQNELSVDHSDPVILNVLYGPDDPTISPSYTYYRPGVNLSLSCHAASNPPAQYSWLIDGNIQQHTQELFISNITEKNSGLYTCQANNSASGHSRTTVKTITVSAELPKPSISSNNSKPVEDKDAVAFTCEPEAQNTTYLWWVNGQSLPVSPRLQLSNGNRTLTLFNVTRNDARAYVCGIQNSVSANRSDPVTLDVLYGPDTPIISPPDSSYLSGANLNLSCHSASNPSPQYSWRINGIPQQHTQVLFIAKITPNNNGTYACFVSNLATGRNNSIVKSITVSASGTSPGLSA
Method: Advanced human primary colon tumor CR-IGR-034P (Julien et al., Clin Cancer Res Oct. 1, 2012 18:5314-5328) was obtained from Patient-derived xenograft in mice. Tumor CR-IGR-034P was enzymatically dissociated using collagenase Type IV (Invitrogen; #17104-019) and deoxyribonuclease I (Invitrogen; #18047-019) for 1 h at […], Cell viability was estimated by Viacount application using Guava® easyCyte™ 8HT Flow Cytometry System. […] 100 μL/well of goat anti-mouse IgG conjugated with Alexa647 (Invitrogen; # A2135) or goat anti-human IgG conjugated with Alexa488 (Invitrogen; # A11013) was added for 45 min at 4° C. and washed three times with PBS 1% BSA. The antibody binding was evaluated after centrifugation and resuspension of cells by adding 200 pliwell PBS 1% BSA and read using Guava® easyCyte™ 8HT Flow Cytometry System. Apparent KD and EC50 values were estimated using BIOST@T-BINDING and BIOST@T-SPEED softwares, respectively.

[3] = biological target: T3, cCEACAM5 A3B3, M. fascicularis CEACAM5 A3-B3 domain (499-688) (Macaca fascicularis); assay: ELISA on coated recombinant CEACAM5 protein or domain, anti-mouse IgG-HRP, OD 450 nm
T3 construct: Followed by 24 amino acid extension containing a His-Tag; also called cynomolgus CEACAM5 A3-B3
T3 chain: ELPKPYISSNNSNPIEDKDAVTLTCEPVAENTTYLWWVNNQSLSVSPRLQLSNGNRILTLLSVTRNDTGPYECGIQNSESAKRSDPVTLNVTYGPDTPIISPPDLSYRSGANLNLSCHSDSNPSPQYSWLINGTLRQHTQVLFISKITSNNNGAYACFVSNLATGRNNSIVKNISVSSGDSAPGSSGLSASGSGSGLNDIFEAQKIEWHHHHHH
Method: Domain mapping of anti-CEACAM5 antibodies to human CEACAM5 and cynomolgus CEACAM5 proteins was determined by ELISA. […] Purified antibodies were added to the plates and detected by using rabbit anti-mouse IgG conjugated with horseradish peroxidase (Sigma; #A9044). Antibody binding was visualized by adding TMB-H2O2 buffer and read at a wavelength of 450 nm.

B1: huMAb2-3 (antibody, human IgG1, kappa, V domains shown)
VH: EVQLQESGPGLVKPGGSLSLSCAASGFVFSSYDMSWVRQTPERGLEWVAYISSGGGITYAPSTVKGRFTVSRDNAKNTLYLQMNSLTSEDTAVYYCAAHYFGSSGPFAYWGQGTLVTVSS
VL: DIQMTQSPASLSASVGDRVTITCRASENIFSYLAWYQQKPGKSPKLLVYNTRTLAEGVPSRFSGSGSGTDFSLTISSLQPEDFATYYCQHHYGTPFTFGSGTKLEIKR
notes: Humanized MAb2, human IgG1 / Ckappa; also called MAb2_VL1cVH1a-IgG1
Kd [1]: 73.5 nM

B2: huMAb2-1 (antibody, V domains shown)
VH: B1 VH with G44R, A60F, V93I, S120A
VL: DIQMTQSPASLSASVGDTVTITCRASENIFSYLAWYQQKPGKSPKLLVYNTKTLAEGVPSRFSGSGSGTQFSLTISSLQPEDFGSYYCQHHYGTPFTFGSGTKLEIK
notes: Humanized MAb2 (VL1 + VH1) fused to human IgG1 and human Ckappa constant domains; also called MAb2_VL1VH1-IgG1; MAb2VL1VH1-IgG1
Kd [1]: 41.7 nM

B6: antibody MAb4 (antibody, IgG1, V domains shown)
VH: EVQLVESGGGLVKPGGSLKLSCAASGFTFSSYDMSWVRQTPEKRLEWVAFISSYGGRTYYADTVKGRFTISRDNAKNTLYLQMSSLKSEDTAMFYCAAHYFGTSGPFAYWGQGTLVTVSA
VL: DIQMTQSPASLSASVGETVTITCRASENIYSYFAWYQQKQGKSPQLLVYNAKILAEGVPSRFSGSGSGTQFSLKINSLQPEDFGTYYCQHHYGIPFTFGSGTKLELK
notes: Murine monoclonal from hybridoma, IgG1, kappa
Kd [2]: 0.16 nM
binding result [3]: binds

B7: antibody MAb5 (antibody, IgG1, V domains shown)
VH: ELQLVESGGVLVKPGGSLKLSCAASGFAFSSYDMSWVRQTPEKRLEWVTYINSGGGITYYPDTVKGRFTISRDNARNTLYLQMSSLKSEDTAIYYCTAHYFGSSGPFAYWGQGTLVTVSA
VL: B6 VL with F33L, I53T, A55T, T85S, I94T, L106I
notes: as for B6
Kd [2]: 0.5 nM
binding result [3]: binds

B8: antibody MAb1 (antibody, IgG1, V domains shown)
VH: EVMLVESGGGLVKPGGSLKLSCAASGFTFSSYAMSWVRQTPEKRLEWVATISSGGSYIYYLDSVKGRFTISRDNAKNTLYLQMSSLRSEDTAMYYCARPAYYGNPAMDYWGQGTSVTVSS
VL: DILMTQSQKFMSTSVGDRVSVTCKASQNVGTNVAWYQQKPGQSPKPLIYSASYRYSGVPDRFTGSGSGTDFTLTISNVQSEDLAEYFCQQYNSYPLYTFGGGTKLEIK
Kd [2]: 1.92 nM
binding result [3]: binds

B9: antibody MAb3 (antibody, IgG1, V domains shown)
VH: EVKLVESGGGLVKPGGSLTLPCAASGFTFSRYAMSWVRQTPEKRLEWVASISSGGDTYYPDSVKGRFTVSRDNARNILFLQMSSLRSEDTGMYYCARVNYYDSSFLDWWGQGTTLTVSS
VL: B8 VL with L3V, K9R, S14L, V15E, P46A, S93N
notes: as for B6
Kd [2]: 1.01 nM
binding result [3]: binds

Further lines, results first:

Kd [1]: 52.3 nM
B3: chMAb2 (antibody, human IgG1, kappa, V domains shown)
VH: EVQLQESGGVLVKPGGSLKLSCAASGFVFSSYDMSWVRQTPEKRLEWVAYISSGGGITYFPDTVQGRFTVSRDNAKNTLYLQMNSLKSEDTAIYYCAAHYFGSSGPFAYWGQGTLVTVSA
VL: B1 VL with D17E, R18T, P40Q, K45Q, R52K, D70Q, T74K, S76N, A84G, T85S
notes: Chimeric, human IgG1, Ck isotype; also called MAb2-IgG1; chimeric MAb2

Kd [1]: 38.6 nM
B4: huMAb2-4 (antibody, human IgG1, kappa, V domains shown)
VH: B1 VH with G44R, A60F, V93I, S120A
VL: B1 VL with R18T, D70Q, A84G, T85S
notes: Humanized MAb2, human IgG1 / Ckappa; also called MAb2_VL1d VH1-IgG1; MAb2_VL1dVH1-IgG1

Kd [1]: 96 nM
B5: huMAb2-2 (antibody, V domains shown)
VH: B1 VH
VL: B2 VL with T18R, Q70D, G84A, S85T
notes: Humanized MAb2 (VL1a + VH1a) fused to human IgG1 and human Ckappa constant domains; also called MAb2_VL1aVH1a-IgG1; MA2_VL1aVH1a-IgG1
